{"source": "paper doi:10.1101/2022.08.30.505748", "about": "(bioRxiv, 2022)", "molecules": {"B1": {"name": "SMAC (second mitochondria-derived activator of caspase), a.a. 56-239, wild-type, unlabelled (natural protein)", "chain": "AVPIAQKSEPHSLSSEALMRRAVSLVTDSTSTFLSQTTYALIEAITEYTKAVYTLTSLYRQYTSLLGKMNSEEEDEVWQVIIGARAEMTSKHQEYLKLETTWMTAVGLSEMAAEAAYQTGADQASITARNHIQLVKLQVEEVHQLSRKAETKLAEAQIEELRQKTQEEGEERAESEQEAYLRED"}, "B2": {"name": "Alexa555-SMAC (WT), a.a. 56-239 with a C-terminal cysteine (natural protein)", "chain": "AVPIAQKSEPHSLSSEALMRRAVSLVTDSTSTFLSQTTYALIEAITEYTKAVYTLTSLYRQYTSLLGKMNSEEEDEVWQVIIGARAEMTSKHQEYLKLETTWMTAVGLSEMAAEAAYQTGADQASITARNHIQLVKLQVEEVHQLSRKAETKLAEAQIEELRQKTQEEGEERAESEQEAYLREDC", "modifications": "Alexa Fluor 555 on the C-terminal cysteine"}, "B3": {"name": "Alexa 555 monomeric SMAC (V81D), a.a. 56-239 with a C-terminal cysteine (natural protein)", "chain": "B2 chain with V26D", "modifications": "Alexa Fluor 555 on the C-terminal cysteine"}}, "key": {"[1]": {"target": "activated caspase-3 (WT), His6-tagged, RED-tris-NTA labelled (UniProt P42574)", "sequence (P42574 whole entry)": "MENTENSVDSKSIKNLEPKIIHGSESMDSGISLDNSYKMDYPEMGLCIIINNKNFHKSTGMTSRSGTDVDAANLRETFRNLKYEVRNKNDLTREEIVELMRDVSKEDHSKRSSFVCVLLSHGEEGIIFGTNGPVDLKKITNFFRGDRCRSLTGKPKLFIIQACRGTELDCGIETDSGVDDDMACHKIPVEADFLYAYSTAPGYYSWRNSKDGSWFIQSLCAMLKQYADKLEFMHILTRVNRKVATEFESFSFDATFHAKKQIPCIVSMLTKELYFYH", "assay": "MST"}, "[2]": {"target": "activated caspase-7, His6-tagged, RED-tris-NTA labelled (UniProt P55210)", "assay": "MST"}, "[3]": {"target": "activated caspase-9, His6-tagged, RED-tris-NTA labelled (UniProt P55211)", "assay": "MST"}, "[4]": {"target": "BIRC6 (Baculoviral IAP repeat-containing protein 6), full-length, wild-type, tag removed (UniProt Q9NR09)", "assay": "cryo-EM structure", "details": "remark: other sources report otherwise"}, "[5]": {"target": "Alexa555-SMAC (WT), a.a. 56-239 with a C-terminal cysteine (UniProt Q9NR28)", "assay": "fluorescence polarisation"}, "[6]": {"target": "BIRC6 (Baculoviral IAP repeat-containing protein 6), full-length, wild-type, tag removed (UniProt Q9NR09)", "assay": "SEC-MALS", "details": "remark: other sources report otherwise"}, "[7]": {"target": "BIRC6 (Baculoviral IAP repeat-containing protein 6), full-length, wild-type, tag removed (UniProt Q9NR09)", "assay": "cryo-EM structure", "details": "remark: other sources report otherwise", "remark": "listed apart in the source"}, "cryo-EM structure": {"target": "the molecule itself", "assay": "cryo-EM structure"}, "[8]": {"target": "T1, BIRC6 (Baculoviral IAP repeat-containing protein 6), full-length, wild-type, tag removed (UniProt Q9NR09 1-4857)", "T1 sequence (Q9NR09 whole entry)": "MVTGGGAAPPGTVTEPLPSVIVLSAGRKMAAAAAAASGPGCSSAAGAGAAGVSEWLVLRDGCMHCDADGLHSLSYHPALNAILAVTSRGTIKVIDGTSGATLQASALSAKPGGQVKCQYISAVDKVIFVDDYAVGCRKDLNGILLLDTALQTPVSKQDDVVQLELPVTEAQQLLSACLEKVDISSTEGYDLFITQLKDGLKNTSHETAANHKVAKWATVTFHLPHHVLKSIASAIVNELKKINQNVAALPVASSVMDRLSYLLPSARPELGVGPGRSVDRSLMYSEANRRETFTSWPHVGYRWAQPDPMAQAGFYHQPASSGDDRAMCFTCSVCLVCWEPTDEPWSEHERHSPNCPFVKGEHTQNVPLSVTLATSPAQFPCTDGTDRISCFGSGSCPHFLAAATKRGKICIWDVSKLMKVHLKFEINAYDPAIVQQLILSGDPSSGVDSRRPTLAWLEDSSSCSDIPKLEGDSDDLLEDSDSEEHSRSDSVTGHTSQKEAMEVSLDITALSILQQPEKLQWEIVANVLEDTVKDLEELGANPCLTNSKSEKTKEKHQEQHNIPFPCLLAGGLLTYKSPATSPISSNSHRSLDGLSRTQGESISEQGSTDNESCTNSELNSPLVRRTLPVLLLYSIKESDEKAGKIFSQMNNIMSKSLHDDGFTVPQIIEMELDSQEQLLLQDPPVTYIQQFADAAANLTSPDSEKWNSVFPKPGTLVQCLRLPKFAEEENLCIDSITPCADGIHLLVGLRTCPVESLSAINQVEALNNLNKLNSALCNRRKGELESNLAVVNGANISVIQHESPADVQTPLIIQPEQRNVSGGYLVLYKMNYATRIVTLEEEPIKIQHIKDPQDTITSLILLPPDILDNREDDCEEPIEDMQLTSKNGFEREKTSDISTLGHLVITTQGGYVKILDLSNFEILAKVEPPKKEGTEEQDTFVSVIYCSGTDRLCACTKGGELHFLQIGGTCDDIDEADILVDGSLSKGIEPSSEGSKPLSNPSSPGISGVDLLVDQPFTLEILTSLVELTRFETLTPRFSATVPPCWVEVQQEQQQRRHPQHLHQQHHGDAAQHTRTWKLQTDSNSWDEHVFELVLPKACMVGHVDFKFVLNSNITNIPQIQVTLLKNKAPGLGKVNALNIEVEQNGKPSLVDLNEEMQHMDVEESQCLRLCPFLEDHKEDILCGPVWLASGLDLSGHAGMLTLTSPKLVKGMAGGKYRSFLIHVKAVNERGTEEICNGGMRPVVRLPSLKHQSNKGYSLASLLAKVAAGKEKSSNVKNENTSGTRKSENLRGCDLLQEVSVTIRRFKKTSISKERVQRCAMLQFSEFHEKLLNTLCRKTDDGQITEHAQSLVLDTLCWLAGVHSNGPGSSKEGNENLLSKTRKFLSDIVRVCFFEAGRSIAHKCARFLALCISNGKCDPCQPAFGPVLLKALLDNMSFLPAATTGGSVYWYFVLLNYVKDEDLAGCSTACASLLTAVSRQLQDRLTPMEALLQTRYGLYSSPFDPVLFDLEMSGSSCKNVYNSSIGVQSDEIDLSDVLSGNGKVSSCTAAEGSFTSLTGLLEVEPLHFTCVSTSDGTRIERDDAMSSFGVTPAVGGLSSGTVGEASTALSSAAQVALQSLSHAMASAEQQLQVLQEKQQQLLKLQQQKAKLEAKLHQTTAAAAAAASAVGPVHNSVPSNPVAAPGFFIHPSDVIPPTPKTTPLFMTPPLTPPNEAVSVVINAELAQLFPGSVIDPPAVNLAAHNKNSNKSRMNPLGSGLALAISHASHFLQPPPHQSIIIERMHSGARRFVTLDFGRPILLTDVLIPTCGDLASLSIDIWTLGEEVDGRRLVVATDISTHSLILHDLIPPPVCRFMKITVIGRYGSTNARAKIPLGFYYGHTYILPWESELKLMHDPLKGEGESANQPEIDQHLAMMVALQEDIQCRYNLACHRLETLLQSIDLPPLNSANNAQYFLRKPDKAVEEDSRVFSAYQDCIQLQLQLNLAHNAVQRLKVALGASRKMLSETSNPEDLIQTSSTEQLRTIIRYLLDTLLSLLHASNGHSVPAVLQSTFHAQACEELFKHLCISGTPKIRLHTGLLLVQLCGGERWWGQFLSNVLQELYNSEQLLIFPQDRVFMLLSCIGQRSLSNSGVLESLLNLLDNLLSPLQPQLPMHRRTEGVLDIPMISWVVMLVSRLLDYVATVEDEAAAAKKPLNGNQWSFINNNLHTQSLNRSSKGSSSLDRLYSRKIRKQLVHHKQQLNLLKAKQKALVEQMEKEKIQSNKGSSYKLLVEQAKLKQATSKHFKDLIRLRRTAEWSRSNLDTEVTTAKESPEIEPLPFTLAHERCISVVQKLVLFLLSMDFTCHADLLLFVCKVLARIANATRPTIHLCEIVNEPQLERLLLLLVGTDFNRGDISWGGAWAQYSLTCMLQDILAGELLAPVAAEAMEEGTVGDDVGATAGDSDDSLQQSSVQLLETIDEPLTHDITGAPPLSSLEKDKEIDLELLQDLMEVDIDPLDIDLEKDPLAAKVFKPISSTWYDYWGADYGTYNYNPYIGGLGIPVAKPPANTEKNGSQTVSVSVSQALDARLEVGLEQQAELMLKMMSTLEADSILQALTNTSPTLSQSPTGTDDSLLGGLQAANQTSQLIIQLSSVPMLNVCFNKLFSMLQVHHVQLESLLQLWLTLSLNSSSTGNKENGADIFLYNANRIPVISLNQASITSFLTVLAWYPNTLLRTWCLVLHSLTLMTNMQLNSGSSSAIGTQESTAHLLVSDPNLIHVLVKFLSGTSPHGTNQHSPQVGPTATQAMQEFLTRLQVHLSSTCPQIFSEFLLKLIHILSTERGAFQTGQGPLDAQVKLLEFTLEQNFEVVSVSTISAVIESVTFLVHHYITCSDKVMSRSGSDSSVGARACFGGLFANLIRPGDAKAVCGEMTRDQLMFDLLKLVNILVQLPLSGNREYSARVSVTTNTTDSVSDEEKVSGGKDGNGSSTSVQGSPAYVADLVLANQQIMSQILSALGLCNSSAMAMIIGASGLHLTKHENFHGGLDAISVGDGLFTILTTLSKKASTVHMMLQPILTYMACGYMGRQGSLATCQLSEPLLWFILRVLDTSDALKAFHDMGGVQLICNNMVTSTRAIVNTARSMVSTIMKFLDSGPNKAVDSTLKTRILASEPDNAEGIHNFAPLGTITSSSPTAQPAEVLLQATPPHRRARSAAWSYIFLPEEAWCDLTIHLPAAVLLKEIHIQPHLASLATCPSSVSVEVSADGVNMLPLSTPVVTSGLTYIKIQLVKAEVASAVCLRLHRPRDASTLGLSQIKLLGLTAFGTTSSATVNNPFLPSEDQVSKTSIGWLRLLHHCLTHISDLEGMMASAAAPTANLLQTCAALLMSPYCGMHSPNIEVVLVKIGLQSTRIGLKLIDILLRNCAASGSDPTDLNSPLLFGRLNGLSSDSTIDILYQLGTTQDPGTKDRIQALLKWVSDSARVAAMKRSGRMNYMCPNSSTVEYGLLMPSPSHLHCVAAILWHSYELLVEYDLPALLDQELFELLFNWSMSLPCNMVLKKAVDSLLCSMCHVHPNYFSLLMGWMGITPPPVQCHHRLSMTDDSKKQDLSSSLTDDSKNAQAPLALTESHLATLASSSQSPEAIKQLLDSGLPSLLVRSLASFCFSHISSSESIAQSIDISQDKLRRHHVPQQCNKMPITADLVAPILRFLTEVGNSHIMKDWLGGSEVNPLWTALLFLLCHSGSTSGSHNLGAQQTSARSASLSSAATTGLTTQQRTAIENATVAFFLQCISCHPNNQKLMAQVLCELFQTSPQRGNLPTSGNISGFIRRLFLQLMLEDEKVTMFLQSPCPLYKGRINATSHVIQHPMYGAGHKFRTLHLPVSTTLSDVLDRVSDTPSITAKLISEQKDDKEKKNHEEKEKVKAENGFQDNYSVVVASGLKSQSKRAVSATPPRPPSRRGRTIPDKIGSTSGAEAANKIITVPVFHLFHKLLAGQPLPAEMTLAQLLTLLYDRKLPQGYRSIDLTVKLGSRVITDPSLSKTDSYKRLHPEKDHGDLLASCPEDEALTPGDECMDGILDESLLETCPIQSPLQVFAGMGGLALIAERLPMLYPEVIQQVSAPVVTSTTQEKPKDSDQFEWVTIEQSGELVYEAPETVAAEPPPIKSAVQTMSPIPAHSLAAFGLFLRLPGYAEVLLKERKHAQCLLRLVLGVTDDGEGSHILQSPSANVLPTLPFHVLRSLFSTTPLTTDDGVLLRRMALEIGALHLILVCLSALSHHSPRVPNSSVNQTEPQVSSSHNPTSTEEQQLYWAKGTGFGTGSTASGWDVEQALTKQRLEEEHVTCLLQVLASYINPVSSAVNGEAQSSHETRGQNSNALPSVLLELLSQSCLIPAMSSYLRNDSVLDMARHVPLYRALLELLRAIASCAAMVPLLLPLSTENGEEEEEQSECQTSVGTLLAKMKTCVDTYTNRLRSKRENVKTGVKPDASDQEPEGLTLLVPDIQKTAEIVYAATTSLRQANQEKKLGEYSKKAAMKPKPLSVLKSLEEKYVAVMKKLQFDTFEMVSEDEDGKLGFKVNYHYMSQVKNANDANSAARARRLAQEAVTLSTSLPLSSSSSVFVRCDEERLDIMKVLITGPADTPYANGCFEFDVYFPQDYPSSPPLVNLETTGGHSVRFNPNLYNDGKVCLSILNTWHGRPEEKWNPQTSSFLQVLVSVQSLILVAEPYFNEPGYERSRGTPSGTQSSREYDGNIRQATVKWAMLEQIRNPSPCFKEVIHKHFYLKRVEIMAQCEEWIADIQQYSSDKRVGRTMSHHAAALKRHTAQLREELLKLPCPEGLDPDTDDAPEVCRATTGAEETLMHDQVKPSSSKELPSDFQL", "assay": "fluorescence polarisation"}, "[9]": {"target": "T1, BIRC6 (Baculoviral IAP …)", "assay": "fluorescence polarisation", "remark": "listed apart in the source"}}, "note": "Positions count from the first letter of the chain named. Numbers in names are those of the source. Read-outs that look alike come from different tables or passages of the source."}
{"molecule": "BIRC6 (Baculoviral IAP repeat-containing protein 6), full-length, wild-type, tag removed (from UniProt Q9NR09 1-4857) (enzyme)", "values": [{"measurement": "Kd", "setting": "[1]", "value": 8.9, "unit": "nM"}, {"measurement": "Kd", "setting": "[2]", "value": 17.1, "unit": "nM"}, {"measurement": "Kd", "setting": "[3]", "value": 46.4, "unit": "nM"}]}
{"molecule": "BIRC6 (Baculoviral IAP repeat-containing protein 6), full-length, wild-type, tag removed, Q9NR09 1-4857", "values": [{"measurement": "stoichiometry N", "setting": "[4]", "value": 2}, {"measurement": "fold greater affinity than for monomeric SMAC (V81D)", "setting": "[5]", "value": "> 10", "unit": "fold"}, {"measurement": "stoichiometry N", "setting": "[6]", "value": 2}, {"measurement": "stoichiometry N", "setting": "[7]", "value": 2}]}
{"molecule": "B1", "values": [{"measurement": "stoichiometry N", "setting": "cryo-EM structure", "value": 2}, {"measurement": "IC50", "setting": "[8]", "value": 8.3, "unit": "nM"}, {"measurement": "Kd", "setting": "[8]", "value": "~0.6", "unit": "nM"}]}
{"molecule": "B2", "values": [{"measurement": "binding result", "setting": "[9]", "value": "binds"}]}
{"molecule": "AVPIAQKSEC (Cy3 on the C-terminal cysteine; C-terminal amide)", "note": "[Cy3-labelled SMAC N-terminal peptide, AVPIAQKSEC(Cy3)-Am]", "values": [{"measurement": "Kd", "setting": "[9]", "value": "35.6 ± 3", "unit": "nM"}]}
{"molecule": "B3", "values": [{"measurement": "Kd", "setting": "[9]", "value": "12.1 ± 1.5", "unit": "nM"}]}
